# Measured values as given in US20090215197A1, “TARGET SUBSTANCE CAPTURING MOLECULE” (CANON KABUSHIKI KAISHA, published 2009).
# B1: MBP bound antibody domain (VHH) (VHH)
# VHH: QVQLQESGPGLLKPSETLFLTCTVSGFSISGGYYWGWFRQPPGKEREWIGSVYHSGSTYYNKSLESRVTISIHTSESQISLKLNSVTAADTAVYSCARYRTAHPLWGQGTMVTVSS
# B2: MBP-bound VHH-Jun/MBP-bound ankyrine Fos hetero dimer (other)
# chain 1: PWQVQLQESGPGLLKPSETLFLTCTVSGFSISGGYYWGWFRQPPGKEREWIGSVYHSGSTYYNKSLESRVTISIHTSESQISLKLNSVTAADTAVYSCARYRTAHPLWGQGTMVTVSSEFGGGGSGGGGSGGGGSRIARLEEKVKTLKAQNSELASTANMLREQVAQLKQKVMNYFGC
# chain 2: PWNAADNTGTTPLHLAAYSGHLEIVEVLLKHGADVDASDVFGYTPLHLAAYWGHLEIVEVLLKNGADVNAMDSDGMTPLHLAAKWGYLEIVEVLLKHGADVNAQDKFGKTAFDISIDNGNEDLAEILQEFGGGGSGGGGSGGGGSLTDTLQAETDQLEDKKSALQC
# B3: MBP-bound VHH-Jun fusion protein and MBP-bound peptide-Fos fusion protein hetero dimer (other)
# chain 1: B2 chain 1
# chain 2: TPIHRRRQFNTGEFGGGGSGGGGSGGGGSLTDTLQAETDQLEDKKSALQTEIANLLKEKEKLEFILAAYRLC
# How the values were obtained:
# [1] = biological target: T1, Maltose-binding protein (MBP) (Escherichia coli (strain K12), UniProt P0AEX9 = MBP); experiment: SPR (BIAcore), MBP immobilized on CM5 chip, 0.1% Tween 20/PBS, 25 C
# [2] = biological target: T1, Maltose-binding protein (MBP); experiment: SPR (BIAcore), same manner as in Example 10 (MBP immobilized on CM5 chip)
# Experimental: In comparison with the single stranded MBP-bound VHH/MBP-bound ankyrine fused protein obtained in Example 4, and the MBP-bound VHH-Jun/MBP-bound ankyrine Fos hetero dimer obtained in Example 9, the MBP bound antibody domain (VHH), which is a single domain protein bound to MBP and represented by Sequence ID No. 2 and the MBP-bound ankyrine represented by Sequence ID No. 6 were evaluated by SPR (manufactured by BIAcore). As a substrate, CM5 (manufactured by BIAcore) is used. MBP is immobilized onto the substrate in accordance with the method recommended by the manufacturer. The MBP immobilized chip thus obtained is subjected to evaluation under the conditions: running Buffer: 0.1% Tween 20/PBS, flow rate: 20 μL/min, and temperature: 25° C. […] The capturing molecule according to the present invention has a high binding ability, compared to the capturing molecule known in the art binding to a target substance at a single epitope (or single site).
# MBP-bound VHH-Jun fusion protein and MBP-bound peptide-Fos fusion protein hetero dimer obtained in Example 14 was evaluated for SPR (manufactured by BIAcore) in the same manner as in Example 10.
Binder,Kd [1] [nM],Kd [2] [nM]
B1,1000,–
B2,1,–
B3,–,10
